According to article PMC7033180, “An endocannabinoid catabolic enzyme FAAH and its paralogs in an early land plant reveal evolutionary and functional relationship with eukaryotic orthologs” (Scientific Reports, 2020):

Legend:
[1] = biological target: T1, PpFAAH1 (Physcomitrium patens, UniProt A0A7I4CIU2); assay: radiolabeled amidohydrolase assay, TLC with radiometric scanner, […] min preincubation with inhibitor; type: biochemical; conditions: read-out: % inhibition at 10 nM
T1 construct: full length cDNA in pDEST15 (GST tag), E. coli BL21(DE3), GST column, tag removal not mentioned; cloning primers translate to N-terminus MAQNKMR and C-terminus FYNILK; catalytic triad K202, S278, S302
T1 sequence (A0A7I4CIU2 1-601): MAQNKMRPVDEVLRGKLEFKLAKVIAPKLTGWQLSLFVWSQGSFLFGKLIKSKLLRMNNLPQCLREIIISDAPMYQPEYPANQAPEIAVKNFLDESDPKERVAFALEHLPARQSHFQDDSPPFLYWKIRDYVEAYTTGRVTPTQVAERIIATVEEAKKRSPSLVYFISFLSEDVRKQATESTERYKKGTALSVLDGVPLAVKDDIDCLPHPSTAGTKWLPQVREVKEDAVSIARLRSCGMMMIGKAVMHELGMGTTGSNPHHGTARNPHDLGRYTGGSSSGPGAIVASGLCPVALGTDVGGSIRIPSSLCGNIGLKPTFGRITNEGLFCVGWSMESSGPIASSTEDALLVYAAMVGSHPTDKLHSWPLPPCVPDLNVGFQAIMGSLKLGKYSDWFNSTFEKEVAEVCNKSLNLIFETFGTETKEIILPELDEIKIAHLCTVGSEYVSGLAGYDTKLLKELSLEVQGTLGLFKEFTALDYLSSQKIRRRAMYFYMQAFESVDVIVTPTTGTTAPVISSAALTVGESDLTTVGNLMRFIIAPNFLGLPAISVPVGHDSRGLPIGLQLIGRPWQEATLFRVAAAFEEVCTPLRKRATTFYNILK

[2] = substrate: CCCCC/C=C\C/C=C\C/C=C\C/C=C\CCCC(=O)NCCO; assay: radiolabeled amidohydrolase assay, TLC with radiometric scanner; type: biochemical, Physcomitrium patens; conditions: pH 8.0, 37 °C, labelled compound ([1-14C])
Description: radiolabeled amidohydrolase assay, TLC with radiometric scanner on PpFAAH1 | The kinetic parameters, Km and Vmax for PpFAAH1 with anandamide as a substrate were determined

Molecule `NC(=O)c1cccc(-c2cccc(OC(=O)NC3CCCCC3)c2)c1` [URB597, [3-(3-carbamoylphenyl)phenyl] N-cyclohexyl carbamate] has an inhibition at 0.01 µM [1] of 20%.

B1: PpFAAH1 (Physcomitrium patens) (protein)
chain: MAQNKMRPVDEVLRGKLEFKLAKVIAPKLTGWQLSLFVWSQGSFLFGKLIKSKLLRMNNLPQCLREIIISDAPMYQPEYPANQAPEIAVKNFLDESDPKERVAFALEHLPARQSHFQDDSPPFLYWKIRDYVEAYTTGRVTPTQVAERIIATVEEAKKRSPSLVYFISFLSEDVRKQATESTERYKKGTALSVLDGVPLAVKDDIDCLPHPSTAGTKWLPQVREVKEDAVSIARLRSCGMMMIGKAVMHELGMGTTGSNPHHGTARNPHDLGRYTGGSSSGPGAIVASGLCPVALGTDVGGSIRIPSSLCGNIGLKPTFGRITNEGLFCVGWSMESSGPIASSTEDALLVYAAMVGSHPTDKLHSWPLPPCVPDLNVGFQAIMGSLKLGKYSDWFNSTFEKEVAEVCNKSLNLIFETFGTETKEIILPELDEIKIAHLCTVGSEYVSGLAGYDTKLLKELSLEVQGTLGLFKEFTALDYLSSQKIRRRAMYFYMQAFESVDVIVTPTTGTTAPVISSAALTVGESDLTTVGNLMRFIIAPNFLGLPAISVPVGHDSRGLPIGLQLIGRPWQEATLFRVAAAFEEVCTPLRKRATTFYNILK
notes: full length cDNA in pDEST15 (GST tag), E. coli BL21(DE3), GST column, tag removal not mentioned; cloning primers translate to N-terminus MAQNKMR and C-terminus FYNILK; catalytic triad K202, S278, S302
Work on B1 yielded a Km [2] of 2.3 µM and a kcat [2] of 1.4 S^−1.
